Test results taken from US20240141038A1 (SHANGHAI QILU PHARMACEUTICAL RESEARCH AND DEVELOPMENT CENTRE, published 2024).
Read-outs that look alike come from different tables or passages of the source.

Legend:
[1] = biological target: T1, human NKp46 (full length, on cells) (human, UniProt O76036 22-304); assay: flow cytometry on human NKp46-CHOK1 cells
Method: (§1) The stable human NKp46-CHOK1 and cynomolgus monkey NKp46-CHOK1 cell lines obtained in Example 2 were cultured, the cells were digested with 0.25% pancreatic enzyme EDTA for about 5 minutes, and the digestion was terminated with the complete medium. After centrifugation at 1,500 rpm for 5 minutes, the supernatant was discarded, the precipitated cells were resuspended with PBS containing 1% BSA and counted. The cell density was adjusted to 1E6/mL and seeded in a corning-3799 96-well culture plate at 100 μL/well. Aftering centrifuging at 1,500 rpm for 5 minutes, the supernatant was discarded and the precipitate was set aside at 4° C. The antibody solutions were prepared with PBS containing 1% BSA, wherein the antibody solution has an initial concentration was 100 nM, then diluted in 10-fold to obtain 7 gradients: 10⁻⁴ nM, 10⁻³ nM, 10⁻² nM, 10⁻¹ nM, […], and 10² nM. The prepared antibody solutions were used to resuspend the cells, 100 μL/well. The resuspended cell culture plates were incubated in a 4° C. freezer for 1 h. After centrifugation at 1500 rpm for 5 minutes, the supernatant was discarded. The precipitate was washed with 160 μL of PBS containing 1% BSA, the supernatant was discarded, and the cells were stored for later use.
(§2) The Secondary antibody (goat anti human IgG Fc PE) solution was prepared with PBS containing 1% BSA, and diluted 1:200. The cells were resuspended with the prepared secondary antibody solution, 100 μL/well, incubated in a 4° C. freezer for 0.5 h. After centrifugation at 1,500 rpm for 5 minutes, the supernatant was discarded, the precipitated cells were washed with 160 μL of PBS containing 1% BSA, the supernatant was discarded, the cells were resuspended with 100 μL of PBS containing 1% BSA, and filtered in 300-mesh gauze. The mean fluorescence intensity of antibody binding to cells was then analyzed on a flow cytometer. The FCS file was exported from the flow cytometer, the mean fluorescence intensity (hereinafter referred to as MFI) of PE channel was analyzed with Flowjo software, and the mean fluorescence intensity obtained was introduced into the Graphpad to analyze the half binding concentration (hereinafter referred to as EC₅₀) and the top mean fluorescence intensity (Top MFI) of the antibody and the cell.

[2] = biological target: cynomolgus monkey NKp46 (full length, on cells) (cynomolgus monkey) (UniProt Q95JB9); assay: flow cytometry on cynomolgus monkey NKp46-CHOK1 cells
cynomolgus monkey NKp46 (full length, on cells) (cynomolgus monkey), sequence (Q95JB9 22-306): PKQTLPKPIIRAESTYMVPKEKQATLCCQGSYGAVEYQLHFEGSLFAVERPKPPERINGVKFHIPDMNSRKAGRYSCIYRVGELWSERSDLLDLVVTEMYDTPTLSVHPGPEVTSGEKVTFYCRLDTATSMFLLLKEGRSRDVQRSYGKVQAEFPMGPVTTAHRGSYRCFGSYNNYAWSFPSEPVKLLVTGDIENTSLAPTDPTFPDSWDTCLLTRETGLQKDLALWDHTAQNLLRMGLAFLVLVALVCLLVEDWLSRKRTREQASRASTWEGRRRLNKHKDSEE

[3] = biological target: cynomolgus monkey NKp46 (full length, on cells) (cynomolgus monkey) (UniProt Q95JB9); assay: as above; remark: listed apart in the source
[4] = biological target: T2, Human NKp46 antigen for immunization, screening, and testing (Kactus, NKP-HM146) (human, UniProt O76036 22-255); assay: SPR (Biacore 8K), antibody captured on anti-human Fc, NKp46 as analyte, 1:1 fit
T2 construct: Bought protein; also called human NKp46 antigen protein; human NKp46 protein
T2 sequence (O76036 other isoform, or with tags, fused parts or gaps limits assumed): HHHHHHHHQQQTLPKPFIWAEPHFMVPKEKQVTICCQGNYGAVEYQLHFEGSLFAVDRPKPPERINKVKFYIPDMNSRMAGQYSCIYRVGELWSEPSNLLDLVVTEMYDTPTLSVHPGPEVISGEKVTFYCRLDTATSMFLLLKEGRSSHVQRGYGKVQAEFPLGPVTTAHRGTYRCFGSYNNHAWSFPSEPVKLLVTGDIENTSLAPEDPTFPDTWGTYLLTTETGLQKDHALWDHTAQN
Method: Human NKp46 was diluted in two-fold to a serial concentration (400 nM-3.125 nM), then combined for 90 s at a flow rate of 50 μL/min, and dissociated for 500 s.
(§3) At the end of each round of experiments, 3 M MgCl₂ solution was used to rinse at a flow rate of 30 μL/min for 30 s, and the captured antibody was removed along with the antigen to complete the regeneration of the chip. The raw data were analyzed using Biacore Insight Evaluation Software (version 3.0.12.15655) software and (1:1) Langmuir model was fit to the data. Compared with the anti-NKp46 humanized antibody and the corresponding chimeric antibody, the affinity to the human NKp46 antigen protein is mostly maintained.

[5] = biological target: T3, Cynomolgus monkey NKp46 for immunization, screening, and testing (Kactus, NKP-CM146) (cynomolgus monkey, UniProt Q95JB9 22-254); assay: as above
T3 construct: Bought protein; also called monkey NKp46 antigen protein; cynomolgus monkey NKp46 antigen
T3 sequence (Q95JB9 other isoform, or with tags, fused parts or gaps limits assumed): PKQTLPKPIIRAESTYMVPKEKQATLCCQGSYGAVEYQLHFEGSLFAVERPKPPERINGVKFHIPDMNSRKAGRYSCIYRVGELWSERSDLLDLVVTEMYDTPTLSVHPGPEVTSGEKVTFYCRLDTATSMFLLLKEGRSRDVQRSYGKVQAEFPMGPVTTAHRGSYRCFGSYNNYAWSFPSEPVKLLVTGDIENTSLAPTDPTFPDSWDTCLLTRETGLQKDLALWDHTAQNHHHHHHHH
Method: Cynomolgus monkey NKp46 was diluted in two-fold to a serial concentration (400 nM-3.125 nM), combined for 90 s at a flow rate of 50 μL/min and dissociated for 500 s.
as §3

[6] = biological target: T1, human NKp46 (full length, on cells); assay: cell-based or functional assay
[7] = biological target: T4, cynomolgus monkey NKp46 (full length, on cells) (cynomolgus monkey, UniProt Q95JB9 22-306); assay: flow cytometry on cynomolgus monkey NKp46-CHOK1 cells
T4 construct: also called cynomolgus monkey NKp46-CHOK1; cynomolgus NKp46-CHOK1
T4 sequence (Q95JB9 22-306): as the sequence (Q95JB9 22-306) above
Method: as §1, §2

T1 sequence (O76036 22-304 Q82K): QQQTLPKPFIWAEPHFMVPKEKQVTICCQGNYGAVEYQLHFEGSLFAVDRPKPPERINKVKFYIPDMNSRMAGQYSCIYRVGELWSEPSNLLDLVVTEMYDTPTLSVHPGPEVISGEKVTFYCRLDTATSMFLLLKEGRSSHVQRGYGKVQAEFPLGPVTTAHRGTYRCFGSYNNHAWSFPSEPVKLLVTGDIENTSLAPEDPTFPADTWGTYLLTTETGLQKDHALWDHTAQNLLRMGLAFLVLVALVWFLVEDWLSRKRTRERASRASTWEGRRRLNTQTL

Molecule: Anti-HEL human IgG1 LALA (Biointron, Cat. number B109802) (antibody)
- Top MFI [1]: 223
- Top MFI ([1]; record 2): 98
- Top MFI [2]: 118
- Top MFI [3]: 86

B1: H2-PA31 humanized antibody (antibody, human IgG1, V domains shown)
VH: EVQLVESGGGLVQPGGSLRLSCAVSGRTFSRLPMGWFRQAPGKGLEFVAAISWSSSTTYYADSVKGRFTISRDNSKNTAYLQMNSLRAEDTAVYYCAAVGGSLDYSATVVYTAARAYADWGQGTLVTVSS
notes: not shown: constant region of human IgG1
- Kd [4]: 10.9 nM
- koff [4]: 0.000959 s⁻¹
- kon [4]: 87800 M⁻¹ s⁻¹
- EC50 [1]: 0.203 nM
- Top MFI [1]: 5940
- Kd [5]: 7.69 nM
- koff [5]: 0.000596 s⁻¹
- kon [5]: 77500 M⁻¹ s⁻¹
- EC50 of NK cell activation (CD107a-positive NK cells, plate-coated antibody) [6]: 0.63 nM
- Top mean fluorescence intensity (Top MFI), NK cell activation (CD107a) [6]: 35.3
- EC50 [7]: 2.11 nM
- Top MFI [7]: 3270

B2: H4-PA31 humanized antibody (antibody, human IgG1, V domains shown)
VH: EVQLVESGGGLVQPGGSLRLSCAVSGRTFSRLPMGWFRQAPGKDREFVAAISWSSSTTYYADSVKGRFTISRDNSKNTAYLQMNSLRAEDTAVYYCAAVGGSLDYSATVVYTAARAYADWGQGTLVTVSS
notes: as for B1
- Kd [4]: 5.89 nM
- koff [4]: 0.00103 s⁻¹
- kon [4]: 175000 M⁻¹ s⁻¹
- EC50 [1]: 0.162 nM
- Top MFI [1]: 5950
- EC50 of NK cell activation (CD107a-positive NK cells, plate-coated antibody) [6]: 0.38 nM
- Top mean fluorescence intensity (Top MFI), NK cell activation (CD107a) [6]: 34.1
- EC50 [7]: 1.3 nM
- Top MFI [7]: 3340

B3: H3-PA31 humanized antibody (antibody, human IgG1, V domains shown)
VH: EVQLVESGGGLVQPGGSLRLSCAVSGRTFSRLPMGWFRQAPGKGREFVAAISWSSSTTYYADSVKGRFTISRDNSKNTAYLQMNSLRAEDTAVYYCAAVGGSLDYSATVVYTAARAYADWGQGTLVTVSS
notes: as for B1
- EC50 [1]: 0.148 nM
- Top MFI [1]: 5980
- EC50 of NK cell activation (CD107a-positive NK cells, plate-coated antibody) [6]: 0.75 nM
- Top mean fluorescence intensity (Top MFI), NK cell activation (CD107a) [6]: 31.6
- EC50 [7]: 1.16 nM
- Top MFI [7]: 3210

B4: H2-PA45 humanized antibody (antibody, V domains shown)
VH: EVQLVESGGGLVQPGGSLRLSCAASGRTFSRLPMAWFRQAPGKGLEFVAAISWSGGSTYYADSMKGRFTISRDNSKNTAYLQMNSLRAEDTAVYYCAAVGDSAPYSATIVYTDARAYAYWGQGTLVTVSS
notes: as for B1
- Kd [4]: 24.1 nM
- koff [4]: 0.00154 s⁻¹
- kon [4]: 63800 M⁻¹ s⁻¹
- EC50 [1]: 0.274 nM
- Top MFI [1]: 5610
- Kd [5]: 7.34 nM
- koff [5]: 0.000563 s⁻¹
- kon [5]: 76700 M⁻¹ s⁻¹
- EC50 of NK cell activation (CD107a-positive NK cells, plate-coated antibody) [6]: 0.75 nM
- Top mean fluorescence intensity (Top MFI), NK cell activation (CD107a) [6]: 39.1
- EC50 [7]: 2.76 nM
- Top MFI [7]: 3590
